Results as given in US20230295281A1.

How the values were obtained:
[1] = target: oxidized LDL (oxidized low-density lipoprotein) (UniProt P04114); test: competition ELISA on coated oxLDL; wells preincubated with Pentaglobin; competitor: IgG autoantibodies of COVID-19 sera
[2] = target: oxidized LDL (oxidized low-density lipoprotein) (UniProt P04114); test: competition ELISA on coated oxLDL; wells preincubated with Pentaglobin; competitor: IgA autoantibodies of COVID-19 sera

How did the percent inhibition of autoantibody binding to oxLDL [1] turn out when “Pentaglobin (human polyclonal immunoglobulin infusion preparation enriched for IgM and IgA)” was run?
The percent inhibition of autoantibody binding to oxLDL was greater than 20%.

And the percent inhibition of autoantibody binding to oxLDL [2]?
The percent inhibition of autoantibody binding to oxLDL was greater than 20%.
